Earlier results as cited in PMC7395068, “The evolution of strategies to minimise the risk of human drug-induced liver injury (DILI) in drug discovery and development” (Archives of Toxicology, 2020).
Read-outs that look alike come from different tables or passages of the source.

Conditions: cited from earlier work
[1] = LTKB DILIrank category, ref Chen 2016
[2] = binary human DILI assignment, ref Chen 2016
[3] = binary DILI call, ref Chen 2016
[4] = binary in vivo human DILI call, ref Chen 2016
[5] = human DILI, LTKB DILIrank category, ref Chen 2016
[6] = binary in vivo DILI call given beside the severity category, ref Chen 2016
[7] = human DILI concern category (LTKB DILIrank), ref Chen 2016

Compound | DILI +VE (5-8), DILI -VE (-4) (in vivo) | DILI severity category (in vivo) | also measured
CC(C)[C@H](N)C(=O)OCCOCn1cnc2c(=O)[nH]c(N)nc21 [valaciclovir] | – | – | DILI severity category [1]: vLess-DILI-Concern; DILI +VE (5-8), DILI -VE (-4) [2]: +VE
Cc1onc(-c2ccccc2)c1-c1ccc(S(N)(=O)=O)cc1 [valdecoxib] | – | – | DILI severity category [1]: vLess-DILI-Concern; DILI +VE (5-8), DILI -VE (-4) [2]: +VE
CC(C)[C@H](N)C(=O)OCC(CO)OCn1cnc2c(=O)nc(N)[nH]c21 (stereo partly drawn) [valganciclovir] | – | – | DILI severity category [1]: Ambiguous DILI-concern; DILI +VE (5-8), DILI -VE (-4) [2]: -VE
c1cnc2cc3c(cc2n1)[C@@H]1CNC[C@H]3C1 [varenicline] | – | – | DILI severity category [1]: vLess-DILI-Concern; DILI +VE (5-8), DILI -VE (-4) [2]: +VE
CC(=O)O[C@H]1C[C@@H]2CC[C@@H]3[C@H](CC[C@@]4(C)[C@H]3C[C@H]([N+]3(C)CCCCC3)[C@@H]4OC(C)=O)[C@@]2(C)C[C@@H]1N1CCCCC1 [vecuronium] | – | – | DILI severity category [1]: vNo-DILI-Concern; DILI +VE (5-8), DILI -VE (-4) [2]: -VE
C=CC(N)CCC(=O)O (stereo not drawn) [vigabatrin] | – | – | DILI severity category [1]: Ambiguous DILI-concern; DILI +VE (5-8), DILI -VE (-4) [2]: -VE
CC[C@]1(O)C[C@H]2CN(CCc3c([nH]c4ccccc34)[C@@](C(=O)OC)(c3cc4c(cc3OC)N(C=O)[C@H]3[C@@](O)(C(=O)OC)[C@H](OC(C)=O)[C@]5(CC)C=CCN6CC[C@]43[C@@H]65)C2)C1 [vincristine] | – | – | DILI severity category [1]: vLess-DILI-Concern; DILI +VE (5-8), DILI -VE (-4) [2]: +VE
CCC1=C[C@@H]2CN(C1)Cc1c([nH]c3ccccc13)[C@@](C(=O)OC)(c1cc3c(cc1OC)N(C)[C@H]1[C@@](O)(C(=O)OC)[C@H](OC(C)=O)[C@]4(CC)C=CCN5CC[C@]31[C@@H]54)C2 [vinorelbine] | – | – | DILI severity category [1]: Ambiguous DILI-concern; DILI +VE (5-8), DILI -VE (-4) [2]: -VE
CC1=C(/C=C/C(C)=C/C=C/C(C)=C/CO)C(C)(C)CCC1 [vitamin a] | – | – | DILI severity category [1]: vLess-DILI-Concern; DILI +VE (5-8), DILI -VE (-4) [2]: +VE
O=C1O[C@H]([C@@H](O)CO)C(O)=C1O [vitamin c] | – | – | DILI severity category [1]: vNo-DILI-Concern; DILI +VE (5-8), DILI -VE (-4) [2]: -VE
O=C(CCCCCCC(=O)Nc1ccccc1)NO [vorinostat] | – | – | DILI severity category [1]: vNo-DILI-Concern; DILI +VE (5-8), DILI -VE (-4) [2]: -VE
CCOC(Nc1ccc(C(=O)O)cc1)C(=O)c1ccc(-c2ccccc2)cc1 (stereo not drawn) [xenazoic acid] | – | – | DILI severity category [1]: vMost-DILI-Concern; DILI +VE (5-8), DILI -VE (-4) [2]: +VE
O=C1Cc2cc(CCN3CCN(c4nsc5ccccc45)CC3)c(Cl)cc2N1 [ziprasidone] | – | – | DILI severity category [1]: vLess-DILI-Concern; DILI +VE (5-8), DILI -VE (-4) [2]: +VE
O=P(O)(O)C(O)(Cn1ccnc1)P(=O)(O)O [zoledronate] | – | – | DILI severity category [1]: vLess-DILI-Concern; DILI +VE (5-8), DILI -VE (-4) [2]: +VE
CN(C)CCc1c[nH]c2ccc(C[C@H]3COC(=O)N3)cc12 [zolmitriptan] | – | – | DILI severity category [1]: Ambiguous DILI-concern; DILI +VE (5-8), DILI -VE (-4) [2]: -VE
Argipressin | – | – | DILI severity category [1]: vNo-DILI-Concern; DILI +VE (5-8), DILI -VE (-4) [3]: -VE
Sodium polystyrene sulfonate | -VE | vNo-DILI-Concern | –
abatacept | +VE | vLess-DILI-Concern | –
abciximab | -VE | vNo-DILI-Concern | –
adalimumab | +VE | vLess-DILI-Concern | –
agalsidase beta | -VE | vNo-DILI-Concern | –

Compound | DILI +VE (5-8), DILI -VE (-4) (in vivo) | DILI severity category (in vivo) | also measured
aldesleukin | -VE | Ambiguous DILI-concern | –
alemtuzumab | -VE | vNo-DILI-Concern | –
alglucosidase alfa | -VE | vNo-DILI-Concern | –
alteplase | -VE | vNo-DILI-Concern | –
anakinra | +VE | vLess-DILI-Concern | –
aprotinin | – | – | DILI severity category [1]: Ambiguous DILI-concern; DILI +VE (5-8), DILI -VE (-4) [3]: -VE
asparaginase | +VE | vMost-DILI-Concern | –
basiliximab | -VE | vNo-DILI-Concern | –
bevacizumab | -VE | vNo-DILI-Concern | –
bivalirudin | – | – | DILI severity category [1]: vNo-DILI-Concern; DILI +VE (5-8), DILI -VE (-4) [3]: -VE
bleomycin | – | – | DILI severity category [1]: Ambiguous DILI-concern; DILI +VE (5-8), DILI -VE (-4) [3]: -VE
botulinum toxin type a | -VE | vNo-DILI-Concern | –
canakinumab | +VE | vLess-DILI-Concern | –
certolizumab pegol | -VE | Ambiguous DILI-concern | –
cholestyramine | -VE | Ambiguous DILI-concern | –
colestipol | -VE | Ambiguous DILI-concern | –
colistimethate | -VE | vNo-DILI-Concern | –
corticotropin (SYSMEHFRWGKPVGKKRRPVKVYPNGAEDESAEAFPLEF; Corticotropin; UniProt P01189 138-176, looked up) | – | – | DILI +VE (5-8), DILI -VE (-4) [4]: -VE; DILI severity category [5]: vNo-DILI-Concern
dalteparin sodium | +VE | vLess-DILI-Concern | –
denileukin diftitox | – | – | DILI +VE (5-8), DILI -VE (-4) [4]: -VE; DILI severity category [5]: Ambiguous DILI-concern
ecallantide | -VE | vNo-DILI-Concern | –

Compound | DILI +VE (5-8), DILI -VE (-4) (in vivo) | DILI severity category (in vivo) | also measured
enoxaparin | +VE | vLess-DILI-Concern | –
epoetin alfa | -VE | vNo-DILI-Concern | –
erythropoietin | -VE | vNo-DILI-Concern | –
etanercept | +VE | vLess-DILI-Concern | –
exenatide | – | – | DILI +VE (5-8), DILI -VE (-4) [4]: -VE; DILI severity category [5]: vNo-DILI-Concern
ferumoxides | -VE | vNo-DILI-Concern | –
ferumoxytol | -VE | vNo-DILI-Concern | –
filgrastim | -VE | Ambiguous DILI-concern | –
galsulfase | -VE | vNo-DILI-Concern | –
gemtuzumab ozogamicin | – | – | DILI +VE (5-8), DILI -VE (-4) [4]: +VE; DILI severity category [5]: vMost-DILI-Concern
glatiramer acetate | – | – | DILI +VE (5-8), DILI -VE (-4) [4]: -VE; DILI severity category [5]: Ambiguous DILI-concern
golimumab | -VE | Ambiguous DILI-concern | –
heparin sodium | +VE | vLess-DILI-Concern | –
hyaluronidase | -VE | vNo-DILI-Concern | –
infliximab | +VE | vMost-DILI-Concern | –
interferon alfacon-1 | +VE | vMost-DILI-Concern | –
interferon beta-1b | +VE | vMost-DILI-Concern | –
lepirudin | -VE | Ambiguous DILI-concern | –
mecasermin | -VE | Ambiguous DILI-concern | –
muromonab-cd3 | -VE | Ambiguous DILI-concern | –
natalizumab | +VE | vMost-DILI-Concern | –

Compound | DILI +VE (5-8), DILI -VE (-4) (in vivo) | DILI severity category (in vivo) | also measured
nesiritide | -VE | vNo-DILI-Concern | –
ofatumumab | -VE | vNo-DILI-Concern | –
omalizumab | -VE | vNo-DILI-Concern | –
palivizumab | – | – | DILI +VE (5-8), DILI -VE (-4) [6]: -VE; DILI severity category [7]: vNo-DILI-Concern
panitumumab | -VE | vNo-DILI-Concern | –
peginterferon alfa-2a | -VE | Ambiguous DILI-concern | –
pentosan polysulfate | -VE | Ambiguous DILI-concern | –
polyethylene glycol 3350 | -VE | vNo-DILI-Concern | –
polymyxin b sulfate | – | – | DILI +VE (5-8), DILI -VE (-4) [6]: -VE; DILI severity category [7]: vNo-DILI-Concern
pramlintide (KCNTATCATQRLANFLVHSSNNFGPILPPTNVGSNTY; chains of the INN, looked up) | -VE | vNo-DILI-Concern | –
protamine sulfate | -VE | vNo-DILI-Concern | –
rilonacept | -VE | vNo-DILI-Concern | –
romiplostim | -VE | vNo-DILI-Concern | –
sacrosidase | -VE | Ambiguous DILI-concern | –
sargramostim | -VE | vNo-DILI-Concern | –
secretin | – | – | DILI +VE (5-8), DILI -VE (-4) [6]: -VE; DILI severity category [7]: vNo-DILI-Concern
simethicone | -VE | vNo-DILI-Concern | –
somatropin recombinant | -VE | vNo-DILI-Concern | –
